Measured values from patent publication US20140179593A1 (published 2014).
Read-outs that look alike come from different tables or passages of the source. Starred links: 1 amine or outer side, 2 acyl side, 3 side chain; linkers in the order of their positions; H or OH if unused. Positions of bridges follow the written chain, without caps; N, C: chain ends. Non-standard residues stand in square brackets, D forms with d. αMeNva(5-ylidene) = C[C@@](CCC=[*:3])(N[*:1])C(=O)[*:2]; S8 = C=CCCCCCC[C@](C)(N)C(=O)O; SeMet = C[Se]CC[C@H](N)C(=O)O; S5 = C=CCCC[C@](C)(N)C(=O)O; Nle = CCCC[C@H](N)C(=O)O

Key:
[1] = target: T1, hDcn1^P (potentiating neddylation / PONY domain of human Dcn1, DCUN1D1) (Homo sapiens, UniProt Q96GG9 62-259); assay: ITC, two-site fit, first value
T1 construct: also called DCUN1D1^P; SCCRO PONY domain
T1 sequence (Q96GG9 62-259): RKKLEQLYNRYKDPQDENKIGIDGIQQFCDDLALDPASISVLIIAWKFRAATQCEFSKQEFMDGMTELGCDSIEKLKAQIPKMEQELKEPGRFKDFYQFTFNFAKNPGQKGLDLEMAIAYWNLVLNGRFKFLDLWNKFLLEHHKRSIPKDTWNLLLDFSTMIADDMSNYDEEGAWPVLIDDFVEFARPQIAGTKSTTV
Method: (§1) Protein samples were buffer matched by desalting over a NAP-5 column (GE Healthcare) into 50 mM Hepes, 125 mM NaCl, 1 mM BME, pH 7.0 (ITC buffer). Peptides were dissolved by weight to a final concentration of 10 mM in ITC buffer and diluted further in ITC buffer as required for the experiments. […] The peptide ligands (4 mM) were constantly injected (1.5 μl). The interval time between each injection was 3 minutes and the duration of each injection was 3 seconds. […] Peptide ligands (250 μM) were constantly injected (2.5 μl). The interval time between each injection was three minutes and the duration of each injection was 5 seconds. […] The interval time between each injection was 3 minutes and the duration of each injection was 5 seconds. Obtained spectra were evaluated using Origin (V 7.0) to determine heats of binding and Kd values.

[2] = target: T1, hDcn1^P (potentiating neddylation / …); assay: ITC, two-site fit, second value
Method: as §1

[3] = target: T2, hDcn5^P (PONY domain of human DCUN1D5) (Homo sapiens, UniProt Q9BTE7 47-237); assay: ITC, peptide titrated into Dcn PONY domain
T2 sequence: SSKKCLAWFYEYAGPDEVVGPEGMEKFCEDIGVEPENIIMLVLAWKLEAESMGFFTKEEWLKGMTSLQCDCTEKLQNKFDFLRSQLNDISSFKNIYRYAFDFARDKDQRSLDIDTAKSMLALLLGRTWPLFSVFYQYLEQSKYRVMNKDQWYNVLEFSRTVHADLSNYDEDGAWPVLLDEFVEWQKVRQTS
Method: as §1

[4] = target: T1, hDcn1^P (potentiating neddylation / …); assay: ITC, peptide titrated into Dcn PONY domain
Method: as §1

[5] = target: T3, hDcn3^P (PONY domain of human DCUN1D3) (Homo sapiens, UniProt Q8IWE4 86-304); assay: ITC, peptide titrated into Dcn PONY domain
T3 sequence: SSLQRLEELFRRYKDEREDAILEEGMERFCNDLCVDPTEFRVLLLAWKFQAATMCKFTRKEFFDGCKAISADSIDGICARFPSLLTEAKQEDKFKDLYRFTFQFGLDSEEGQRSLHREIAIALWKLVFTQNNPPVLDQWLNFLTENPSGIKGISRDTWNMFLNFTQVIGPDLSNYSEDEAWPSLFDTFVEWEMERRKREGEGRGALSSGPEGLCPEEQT
Method: as §1

[6] = target: T4, hDcn1^P (PONY domain of human Dcn1 / DCUN1D1 / SCCRO, residues 62 to 259) (Homo sapiens, UniProt Q96GG9 62-259); assay: ITC, peptide titrated into hDcn1^P
T4 construct: NEDD8 co-E3; Expressed as a GST fusion in E. coli; GST was removed with TEV protease; also called DCUN1D1^P
T4 sequence (Q96GG9 62-259): as the sequence (Q96GG9 62-259) above
Method: (§2) To gain insights into mechanistic roles of Ubc12 N-terminal acetylation, isothermal titration calorimetry (ITC) was used to quantify interactions with peptides corresponding to the N-termini of yeast or human Ubc12.
as §1

[7] = target: T5, hE1 for Nedd8 (APPBP1-UBA3, NAE1-UBA3) (Homo sapiens, UniProt Q13564 18-534; Q8TBC4 22-463, limits assumed); assay: ITC, peptide titrated into hE1
T5 construct: Heterodimeric E1 expressed in E. coli as described in earlier publications
T5 sequence 1: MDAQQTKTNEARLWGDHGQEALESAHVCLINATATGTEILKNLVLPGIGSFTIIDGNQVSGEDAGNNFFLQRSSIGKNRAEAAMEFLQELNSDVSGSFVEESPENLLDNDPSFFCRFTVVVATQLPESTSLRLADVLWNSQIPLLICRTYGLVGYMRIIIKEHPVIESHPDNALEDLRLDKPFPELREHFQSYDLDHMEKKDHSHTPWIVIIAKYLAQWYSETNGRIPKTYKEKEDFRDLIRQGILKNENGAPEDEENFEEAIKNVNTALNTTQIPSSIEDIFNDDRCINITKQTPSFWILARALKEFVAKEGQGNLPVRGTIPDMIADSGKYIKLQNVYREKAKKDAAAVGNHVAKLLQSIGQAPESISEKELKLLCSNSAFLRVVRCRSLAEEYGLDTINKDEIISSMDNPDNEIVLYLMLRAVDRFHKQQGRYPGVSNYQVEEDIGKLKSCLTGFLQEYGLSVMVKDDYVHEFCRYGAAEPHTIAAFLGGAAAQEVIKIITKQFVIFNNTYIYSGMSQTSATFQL
T5 sequence 2: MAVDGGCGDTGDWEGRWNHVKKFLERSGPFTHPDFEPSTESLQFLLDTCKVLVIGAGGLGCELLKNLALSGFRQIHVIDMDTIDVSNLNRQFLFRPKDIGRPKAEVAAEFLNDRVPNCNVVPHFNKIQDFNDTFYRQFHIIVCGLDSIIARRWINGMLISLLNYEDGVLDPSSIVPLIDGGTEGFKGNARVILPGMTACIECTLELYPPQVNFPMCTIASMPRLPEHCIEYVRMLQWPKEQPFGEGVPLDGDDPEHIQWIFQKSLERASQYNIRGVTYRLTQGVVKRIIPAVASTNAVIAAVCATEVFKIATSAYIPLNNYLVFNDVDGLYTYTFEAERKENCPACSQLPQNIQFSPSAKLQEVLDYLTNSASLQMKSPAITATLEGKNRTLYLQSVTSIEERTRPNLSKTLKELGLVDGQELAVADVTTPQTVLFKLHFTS
Method: as §2, §1

[8] = target: T4, hDcn1^P (PONY domain of human Dcn1 / …); assay: ITC, peptide titrated into hDcn1^P; remark: listed apart in the source
Method: (§3) Specifically, Phe5 and Gln9 were replaced with (S)-2-(4′-pentenyl) alanine and these side-chains were covalently linked to test the effect of “stapling” an acetylated Ubc12 peptide into a helix (Bird et al. (2008) Methods Enzymol 446:369-386).
as §1

[9] = target: T5, hE1 for Nedd8 (APPBP1-UBA3, NAE1-UBA3); assay: ITC, peptide titrated into hE1; remark: listed apart in the source
Method: as §3, §1

B1: hUbc12^Ac1-12 (NorLeu) 6, 10 (peptide)
peptide: Ac-[Nle]IKLF[S5]LKQ[S5]KK-NH2
modifications: staple 6-10
SMILES: CCCC[C@H](NC(C)=O)C(=O)N[C@H](C(=O)N[C@@H](CCCCN)C(=O)N[C@@H](CC(C)C)C(=O)N[C@@H](Cc1ccccc1)C(=O)N[C@@]1(C)CCCC=CCCC[C@@](C)(C(=O)N[C@@H](CCCCN)C(=O)N[C@@H](CCCCN)C(N)=O)NC(=O)[C@H](CCC(N)=O)NC(=O)[C@H](CCCCN)NC(=O)[C@H](CC(C)C)NC1=O)[C@@H](C)CC
notes: Stapled synthetic peptide
[1]
  Kd: 0.8 µM
[2]
  Kd: 1.2 µM

B2: hUbc12^Ac1-12 (Met) SS 6, 10 (peptide)
peptide: Ac-MIKLF[S5]LKQ[S5]KK-NH2
modifications: staple 6-10
notes: Stapled synthetic peptide; 'SS' is not explained in the text
[1]
  Kd: 0.0018 µM
[2]
  Kd: 0.187 µM

B3: hUbc12^Ac1-12 (SeMet) 6, 10 (peptide)
peptide: Ac-[SeMet]IKLF[S5]LKQ[S5]KK-NH2
modifications: staple 6-10
notes: Stapled synthetic peptide
[1]
  Kd: 0.00093 µM
[2]
  Kd: 0.361 µM

B4: hUbc12^Ac1-12 (Met) But:Oct 6, 10 (peptide)
peptide: Ac-MIKLF[αMeNva(5-ylidene)]LKQ[S8]KK-NH2
modifications: staple 6-10
[3]
  Kd: 0.781 µM
[4]
  Kd: 0.12 µM
[5]
  Kd: 1.52 µM

B5: yUbc12^Ac1-12 (Met) 6, 10 (peptide)
peptide: Ac-MLKLR[S5]LQK[S5]KQ-NH2
modifications: staple 6-10
SMILES: CSCC[C@H](NC(C)=O)C(=O)N[C@@H](CC(C)C)C(=O)N[C@@H](CCCCN)C(=O)N[C@@H](CC(C)C)C(=O)N[C@@H](CCCNC(=N)N)C(=O)N[C@@]1(C)CCCC=CCCC[C@@](C)(C(=O)N[C@@H](CCCCN)C(=O)N[C@@H](CCC(N)=O)C(N)=O)NC(=O)[C@H](CCCCN)NC(=O)[C@H](CCC(N)=O)NC(=O)[C@H](CC(C)C)NC1=O
notes: Stapled synthetic peptide; also called Acetyl-yUbc12^1-12(6:10 Staple)
[1]
  Kd: 0.038 µM
[2]
  Kd: 0.037 µM

B6: Acetyl-hUbc12^1-26 peptide (peptide)
peptide: Ac-MIKLFSLKQQKKEEESAGGTKGSSKK-NH2
notes: Synthetic peptide; also called hUbc12^Ac1-26
[6]
  Kd: 1.11 µM
  ΔH: -25.6 kJ/mol
  ΔS: 5.84 cal/mol/deg
[7]
  Kd: 0.943 µM
  N (stoichiometry): 1.14
  ΔH: -39.4 kJ/mol
  ΔS: -4.79 cal/mol/deg

B7: Acetyl-hUbc12^2-26 peptide (peptide)
peptide: Ac-IKLFSLKQQKKEEESAGGTKGSSKK-NH2
notes: Synthetic peptide lacking Met1; also called hUbc12^Ac-2-26
[6]
  ΔH: 7.19 kJ/mol
  ΔS: 24.1 cal/mol/deg
[7]
  Kd: 0.39 µM
  N (stoichiometry): 1.04
  ΔH: -37.2 kJ/mol
  ΔS: -1.24 cal/mol/deg

B8: Acetyl-hUbc12^1-12 peptide (peptide)
peptide: Ac-MIKLFSLKQQKK-NH2
notes: Synthetic control peptide for the stapled peptide; also called hUbc12^Ac1-12
[8]
  ΔH: -20.9 kJ/mol
  ΔS: 8.79 cal/mol/deg
[9]
  Kd: 0.63 µM
  ΔH: -48.1 kJ/mol
  ΔS: -11 cal/mol/deg

B9: Acetyl-hUbc12^1-12(5:9Staple) peptide (peptide)
peptide: Ac-MIKL[S5]SLK[S5]QKK-NH2
modifications: staple 5-9
notes: Printed as Ac-MIKLXSLKXQKK-NH2, X = 2-(4-pentenyl)alanine; Phe5 and Gln9 are replaced
[8]
  Kd: 0.15 µM
  ΔH: -14.2 kJ/mol
  ΔS: 19.3 cal/mol/deg
[9]
  binding result: no binding
